Experimental data: paper PMC12096439, “Ion-DNA Interactions as a Key Determinant of Uracil DNA Glycosylase Activity”

Molecular target: UNG2-Fluor (human, UniProt P13051 =C+1-313, C141A;C166A;C290A;internal_change)
Assay: fluorescence quenching titration; 1 mM MgCl2; 10 mM Tris-Cl, 0.1 mM EDTA, pH 8.0, 2 mM NaCl carry-over, MgCl2 varied, 22 C, 50 nM UNG2-Fluor; ex 495 nm, em 520 nm
Conditions: protein: recombinant; tags: N-terminal fluorescein (maleimide on added Cys); label: 5' Iowa Black FQ; single strand

Chain of UNG2-Fluor (P13051 other isoform, or with tags, fused parts or gaps C141A;C166A;C290A;): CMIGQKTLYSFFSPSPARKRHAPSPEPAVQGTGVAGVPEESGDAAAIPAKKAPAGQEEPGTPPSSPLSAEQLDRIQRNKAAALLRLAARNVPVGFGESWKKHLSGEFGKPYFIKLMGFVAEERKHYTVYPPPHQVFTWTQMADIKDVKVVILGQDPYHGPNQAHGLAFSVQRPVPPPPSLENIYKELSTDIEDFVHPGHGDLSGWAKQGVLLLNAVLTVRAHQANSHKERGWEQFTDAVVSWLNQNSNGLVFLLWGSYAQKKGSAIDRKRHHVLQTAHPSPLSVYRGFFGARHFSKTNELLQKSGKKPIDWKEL

Row | Binder | Kd [nM]
1 | CGATAG (ssDNA) [6 nt dark quencher ssDNA] | 1000
2 | TCAGGTGAATCGATAGCTAAGAGCATG (ssDNA) [27 nt dark quencher ssDNA] | 3
